The target in the experiment is human Factor XIIa (human) (UniProt P00748).
human Factor XIIa (human), sequence (P00748 20-615): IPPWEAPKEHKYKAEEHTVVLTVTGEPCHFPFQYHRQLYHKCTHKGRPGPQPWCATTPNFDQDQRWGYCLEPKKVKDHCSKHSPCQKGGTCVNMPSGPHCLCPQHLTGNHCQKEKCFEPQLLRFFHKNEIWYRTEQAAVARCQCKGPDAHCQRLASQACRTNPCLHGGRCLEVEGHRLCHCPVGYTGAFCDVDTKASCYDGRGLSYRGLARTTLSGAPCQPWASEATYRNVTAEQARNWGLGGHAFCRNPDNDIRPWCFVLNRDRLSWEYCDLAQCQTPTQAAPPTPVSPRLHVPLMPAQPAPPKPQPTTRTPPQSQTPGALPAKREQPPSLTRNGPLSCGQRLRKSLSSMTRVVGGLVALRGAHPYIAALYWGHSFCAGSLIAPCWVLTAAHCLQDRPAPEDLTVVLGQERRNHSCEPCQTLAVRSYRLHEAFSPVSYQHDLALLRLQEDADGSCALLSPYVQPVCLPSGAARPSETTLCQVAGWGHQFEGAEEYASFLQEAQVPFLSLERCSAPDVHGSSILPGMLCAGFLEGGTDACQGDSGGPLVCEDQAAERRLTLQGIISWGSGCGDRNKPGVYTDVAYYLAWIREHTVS
Turning to “Inf4_F10P+N12I+V14M (domain or fragment)”, the IC50 of inhibition of FXIIa activity, chromogenic assay (substrate S-2302) came to 70.5 nM.

On to Inf4_G25N (domain or fragment), for which the IC50 of inhibition of FXIIa activity, chromogenic assay (substrate S-2302) came out at 54.1 nM. As for Inf4_F10P+V14M (domain or fragment), the IC50 of inhibition of FXIIa activity, chromogenic assay (substrate S-2302) was 42.1 nM. The figure for Inf4_F10P+N12I (domain or fragment) is 22.8 nM; for Inf4_N12I+V14M (domain or fragment) it is 7.9 nM. The figure for AaTI_Inf4 C1C3+C5C6+N27G is 11.4 nM.

The record behind these values is PMC9112662, “Scaffold stability and P14′ residue steric hindrance in the differential inhibition of FXIIa by Aedes aegypti trypsin inhibitor versus Infestin-4” (Bioscience Reports, 2022).
